{"source": "patent US7598352B2", "about": "“Method of identifying polypeptide monobodies which bind to target proteins and use thereof” (University of Rochester, priority 2000, dated 2009)", "molecules": {"B1": {"name": "SRC-1: NR-box fragment (residues 570-780) of steroid receptor coactivator-1, natural coactivator of ER (protein)", "chain": "PSRLNIQPAKAESKDNKEIASILNEMIQSDNSSSDGKPLDSGLLHNNDRLSDGDSKYSQTSHKLVQLLTTTAEQQLRHADIDTSCKDVLSCTGTSNSASANSSGGSCPSSHSSLTERHKILHRLLQEGSPSDITTLSVEPDKKDSASTSVSVTGQVQGNSSIKLELDASKKKESKDHQLLRYLLDKDEKDLRSTPNLSLDDVKVKVEKKEQ", "modifications": "left off: large carriers"}, "B2": {"name": "Clone F2-2#11: pYT45B3F7 library monobody, E2 screen; FG loop RVMDMLL (SEQ ID No: 44) (protein)", "chain": "MQVSDVPRDLEVVAATPTSLLISWDAPAVTVRYYRITYGETGGNSPVQEFTVPGSKSTATISGLKPGVDYTITVYAVTGRVMDMLLSKPISINYRT", "modifications": "left off: large carriers"}, "B3": {"name": "Clone 33: pYT45B3F7 library monobody, OHT screen; FG loop TWVRPNQ (SEQ ID No: 49) (protein)", "chain": "MQVSDVPRDLEVVAATPTSLLISWDAPAVTVRYYRITYGETGGNSPVQEFTVPGSKSTATISGLKPGVDYTITVYAVTGTWVRPNQSKPISINYRT", "modifications": "left off: large carriers"}, "B4": {"name": "Clone 23,31,E31,3,4,5: pYT45B3F7 library monobody, E2 screen; FG loop LRLMLAG (SEQ ID No: 36), wild-type BC loop (protein)", "chain": "MQVSDVPRDLEVVAATPTSLLISWDAPAVTVRYYRITYGETGGNSPVQEFTVPGSKSTATISGLKPGVDYTITVYAVTGLRLMLAGSKPISINYRT", "modifications": "left off: large carriers"}, "B5": {"name": "F2-2#10 (protein)", "chain": "MQVSDVPRDLEVVAATPTSLLISWDAPAVTVRYYRITYGETGGNSPVQEFTVPGSKSTATISGLKPGVDYTITVYAVTGRVRDLLMSKPISINYRT", "modifications": "left off: large carriers"}}, "type_in_all_cases": "cell-based", "key": {"[1]": {"molecular_target": "T1, ERα-EF (residues 297-595, the E and F domains of Estrogen Receptor α) (Homo sapiens, UniProt P03372, G400V)", "T1 construct": "expressed in transfected cells; host or cells: Saccharomyces cerevisiae RFY206 (mated with EGY48 for the survival screens)", "T1 sequence (P03372 with tags, fused parts or gaps G400V)": "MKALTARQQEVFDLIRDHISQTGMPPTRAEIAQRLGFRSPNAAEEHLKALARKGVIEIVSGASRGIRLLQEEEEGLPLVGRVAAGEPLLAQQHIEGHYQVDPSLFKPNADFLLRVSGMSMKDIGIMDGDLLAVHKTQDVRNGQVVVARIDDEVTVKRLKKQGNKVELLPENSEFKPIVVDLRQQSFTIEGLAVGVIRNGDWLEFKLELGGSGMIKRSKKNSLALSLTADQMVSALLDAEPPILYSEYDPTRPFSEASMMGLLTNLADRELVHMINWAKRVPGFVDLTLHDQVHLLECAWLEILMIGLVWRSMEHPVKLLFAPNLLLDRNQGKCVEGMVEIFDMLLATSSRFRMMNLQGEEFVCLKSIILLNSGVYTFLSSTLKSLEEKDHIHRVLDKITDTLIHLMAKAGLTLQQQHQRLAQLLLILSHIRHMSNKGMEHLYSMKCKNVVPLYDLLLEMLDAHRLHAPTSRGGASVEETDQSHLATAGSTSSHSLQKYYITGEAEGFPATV", "experiment": "Quantitative β-galactosidase yeast two-hybrid assay, ERα-EF bait", "details": "for binding to different ERα-EF/agonist complexes: agonists E2, estriol, diethylstilbestrol, genistein, FIGS. 15A-D", "procedure": "(§1) Quantitative assays were performed as follows. The yeast strain RFY206 was (1) first transformed with pEGERα297-595 (or pEGERα297-554) and pSH18-34 and (2) subsequently with a derivative of the pYT45 plasmid encoding a particular monobody. Yeast cells were grown overnight at 30° C. in YC Glc-his-ura-trp media. The culture was then spun down, the media were discarded, and the cells were resuspended in YC Gal Raf-his-ura-trp media containing a ligand at a final cell density of 0.2 OD660 nm in a total volume of 175 μl in the wells of a deep 96-well plate. Ligands used were E2, ICI182,780, OHT, raloxifene, progesterone, estriol, diethylstilbestrol, and genistein. The ligand concentration was 1 μM except for genistein (10 μM). After incubating for six hours at 30° C. with shaking, 175 μl of β--galactosidase assay buffer (60 mM Na2HPO4, 40 mM NaH2PO4, 10 mM KCl, 1 mM MgSO4, 0.27% β-mercaptoethanol, 0.004% SDS, 4 mg/ml 2-nitrophenyl-β-D-[…], 50% Y-PER (Pierce)) was added to the culture, incubated at 30° C., then the reaction was stopped by adding 150 μl of 1M Na2CO3. After centrifugation, OD420 was measured and the β-galactosidase activity was calculated.\nThe binding specificity of the monobodies toward different ERα-EF/ligand complexes was examined using quantitative β-galactosidase assays. It has been shown that the β-galactosidase activity correlates well with the interaction affinity between the bait and prey of the yeast two-hybrid system (Estojak et al., 1995), allowing an in vivo discrimination of interaction affinity. To minimize the effect of different ligands on the expression level and degradation of the LexA-ER fusion protein, β-galactosidase activity was determined after a short incubation period (6 hours) following the addition of a ligand and the initiation of monobody production. It was confirmed that yeast samples prepared in the presence and absence of ligands contained similar levels of ERα-EF protein (FIG. 14H)."}, "[2]": {"molecular_target": "T2, ERα-E (residues 297-554, the E domain of Estrogen Receptor α) (Homo sapiens, UniProt P03372, G400V)", "T2 construct": "ERα-E (residues 297-554, the E domain of Estrogen Receptor α); expressed in transfected cells; host or cells: Saccharomyces cerevisiae RFY206", "T2 sequence (P03372 297-554 G400V)": "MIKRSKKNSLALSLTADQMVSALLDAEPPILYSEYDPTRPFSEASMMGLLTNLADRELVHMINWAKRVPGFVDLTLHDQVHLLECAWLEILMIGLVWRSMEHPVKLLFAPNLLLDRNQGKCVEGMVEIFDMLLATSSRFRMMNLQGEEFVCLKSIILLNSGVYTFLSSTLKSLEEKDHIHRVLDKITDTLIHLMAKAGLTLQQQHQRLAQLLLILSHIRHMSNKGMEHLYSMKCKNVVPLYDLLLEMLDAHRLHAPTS", "experiment": "Quantitative β-galactosidase yeast two-hybrid assay, ERα-E bait (F domain deleted) compared with ERα-EF", "details": "for effect of deletion of the F domain on interaction with the ERα fragments: in the presence of E2, ERα-E vs ERα-EF, FIGS. 16A-C", "procedure": "as §1\nThe affects of the F domain (residues 551-595) on interactions of monobodies with the LBD (the E domain) of ERα was tested. The β-galactosidase activity of cells containing a LexA-ERα E domain fusion protein and a monobody-activation domain fusion protein was compared to the β-galactosidase activity of cells containing LexA-ERα-EF and the same monobody-activation domain fusion protein (FIGS. 16A-E)."}, "[3]": {"molecular_target": "T1, ERα-EF (residues 297-595, the E and F domains of Estrogen Receptor α)", "experiment": "Yeast two-hybrid survival assay (LEU+ growth selection) of monobody clones", "details": "ligand ICI182,780, pYT45B3F7 library clones", "text": "Briefly, utilizing such a system, plasmids are constructed that encode two fusion proteins, the interaction of which is shown schematically in FIGS. 4A-B. The first fusion protein (also known as “bait”) contains the DNA-binding domain (e.g., LexA) fused to a known protein, in this case a nuclear receptor or fragment thereof which includes a functional ligand binding domain (NR-LBD). Any of the above-identified nuclear receptors (or fragments thereof which include a functional ligand binding domain) can be used as the bait protein or polypeptide. The second fusion protein (also known as “prey”) includes an activation domain (e.g., B42) fused to an unknown protein, in this case a polypeptide monobody, that is encoded by a cDNA which has been recombined into a plasmid as part of a combinatorial cDNA library. Both plasmids include a promoter which is operable in yeast cells and which has been ligated upstream of the fusion protein coding regions. […] In contrast, where interaction between the monobody of the prey and the nuclear receptor ligand binding domain of the bait occurs (FIG. 4B), a functional transcription factor is reconstituted, resulting in expression of the reporter gene which can be detected by an assay for the reporter gene product. […]"}}}
{"molecule": "B1", "values": [{"measurement": "binding to different ERα-EF/agonist complexes", "setting": "[1]", "value": "bind equally well"}, {"measurement": "effect of deletion of the F domain on interaction with the ERα fragments", "setting": "[2]", "value": "little effect"}]}
{"molecule": "B2", "values": [{"measurement": "sensitivity to the differences among agonist complexes", "setting": "[1]; ERα-EF/agonist complexes", "value": "most sensitive"}, {"measurement": "β-galactosidase activity among those tested", "setting": "[1]; ERα-EF/agonist complexes, FIGS. 14-16", "value": "lowest"}, {"measurement": "binding to different ERα-EF/agonist complexes", "setting": "[1]", "value": "different reactivity"}]}
{"molecule": "B3", "values": [{"measurement": "effect of deletion of the F domain on interaction with ERα", "setting": "[2]; in the absence of a ligand", "value": "did not increase"}, {"measurement": "interactions with ERα-E and ERα-EF compared", "setting": "[2]; in the presence of OHT, FIG. 16D", "value": "similar"}, {"measurement": "interaction with ERα-E/raloxifene complex relative to ERα-EF/raloxifene complex", "setting": "[2]; raloxifene, FIG. 16D", "value": "significantly greater"}]}
{"molecule": "B4", "values": [{"measurement": "binding to different ERα-EF/agonist complexes", "setting": "[1]", "value": "bind equally well"}, {"measurement": "effect of deletion of the F domain on interaction with the ERα fragments", "setting": "[2]", "value": "little effect"}]}
{"molecule": "B5", "values": [{"measurement": "Binding Specificity ICI", "setting": "[3]", "value": "weak+"}]}
